Patent US20200123264A1 (Regeneron, published 2020)

T1: extracellular domain of human LEPR with an N-terminal myc-myc tag, GPI-anchored on HEK293 cells (human, UniProt P48357 22-839, GPI anchor at the C-terminus ; A GPI anchor is attached at the C end through a carboxypeptidase M derived peptide. The protein is displayed on HEK293 cells.)
T1 construct: also called HEK293/hLEPR-GPI; Mycx2-hLEPR(Ecto)-GPI
T1 sequence: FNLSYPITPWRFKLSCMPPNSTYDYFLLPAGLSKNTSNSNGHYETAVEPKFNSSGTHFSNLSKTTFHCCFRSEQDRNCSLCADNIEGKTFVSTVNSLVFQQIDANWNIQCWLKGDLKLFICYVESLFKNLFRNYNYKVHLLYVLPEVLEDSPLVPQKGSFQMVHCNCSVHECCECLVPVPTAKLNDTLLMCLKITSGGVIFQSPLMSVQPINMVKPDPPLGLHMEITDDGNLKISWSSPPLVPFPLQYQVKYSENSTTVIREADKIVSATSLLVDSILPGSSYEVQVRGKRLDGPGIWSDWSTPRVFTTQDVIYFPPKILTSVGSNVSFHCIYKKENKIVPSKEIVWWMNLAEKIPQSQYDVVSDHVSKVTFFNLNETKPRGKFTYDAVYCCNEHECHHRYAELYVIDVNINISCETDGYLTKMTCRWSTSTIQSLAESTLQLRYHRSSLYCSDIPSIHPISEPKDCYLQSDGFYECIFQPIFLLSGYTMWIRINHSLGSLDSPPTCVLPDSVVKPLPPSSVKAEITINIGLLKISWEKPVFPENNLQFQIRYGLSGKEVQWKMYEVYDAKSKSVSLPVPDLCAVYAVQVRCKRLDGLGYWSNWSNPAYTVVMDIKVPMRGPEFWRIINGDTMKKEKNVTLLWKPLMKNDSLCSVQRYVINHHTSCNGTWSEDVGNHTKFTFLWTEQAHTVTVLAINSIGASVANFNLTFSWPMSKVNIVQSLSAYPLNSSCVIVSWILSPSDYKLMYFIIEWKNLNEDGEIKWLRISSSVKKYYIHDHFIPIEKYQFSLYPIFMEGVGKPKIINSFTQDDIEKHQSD

T2: human LEPR CRH2-MMH (human, UniProt P48357 428-634, limits assumed)
T2 construct: domain: CRH2; Transiently expressed, captured from supernatant on anti-myc beads
T2 sequence (looked up): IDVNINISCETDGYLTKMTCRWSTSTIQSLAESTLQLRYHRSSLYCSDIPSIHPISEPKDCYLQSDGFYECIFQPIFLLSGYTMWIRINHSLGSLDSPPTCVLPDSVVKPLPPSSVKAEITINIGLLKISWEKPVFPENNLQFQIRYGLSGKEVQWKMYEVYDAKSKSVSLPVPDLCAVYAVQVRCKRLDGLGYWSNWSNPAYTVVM

T3: human LEPR CRH1 (D1,D2)-MMH (human, UniProt P48357 22-339, limits assumed)
T3 construct: domain: CRH1 (D1,D2); Transiently expressed, captured from supernatant on anti-myc beads
T3 sequence (looked up): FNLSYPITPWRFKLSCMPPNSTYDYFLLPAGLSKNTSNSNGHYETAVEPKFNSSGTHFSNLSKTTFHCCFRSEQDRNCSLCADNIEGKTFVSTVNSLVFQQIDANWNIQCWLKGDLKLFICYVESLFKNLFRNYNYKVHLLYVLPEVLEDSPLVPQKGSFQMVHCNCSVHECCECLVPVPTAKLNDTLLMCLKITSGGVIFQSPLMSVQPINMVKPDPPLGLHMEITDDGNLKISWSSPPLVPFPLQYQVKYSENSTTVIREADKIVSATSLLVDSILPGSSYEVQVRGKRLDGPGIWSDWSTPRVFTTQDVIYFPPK

B1: H4H18462P2 (antibody, human IgG4, V domains shown)
VH: EVQLVESGGDLVQPGRSLRLSCAASGFTFSSFAMSWVRQAPGRGLEWVSSLSDSGDNTYYADSVKGRFTISRDNSKNTLYLQMNNLRAEDTAVYYCAKDLFSGWLFHGFDVWGQGTMVTVSS
VL: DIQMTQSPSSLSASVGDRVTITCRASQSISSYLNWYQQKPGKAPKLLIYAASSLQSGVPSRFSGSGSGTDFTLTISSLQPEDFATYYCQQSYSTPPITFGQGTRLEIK
notes: H4H prefix: human IgG4 Fc
B2: H4H18457P2 (antibody, human IgG4, V domains shown)
VH: EVQLVESGGSVVRPGESLRLSCAASGFTFDDYGMSWVRQAPGKGLEWVSGISWNGGITVYADSVKGRFTVSRDNAKNSLYLQMNSLRAEDTALYHCARARYGGADYWGQGTLVTVSS
VL: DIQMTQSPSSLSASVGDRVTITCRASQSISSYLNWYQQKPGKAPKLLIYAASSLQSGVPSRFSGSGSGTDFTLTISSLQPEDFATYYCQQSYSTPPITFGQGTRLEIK
notes: H4H prefix: human IgG4 Fc
B3: H4H18464P2 (antibody, human IgG4, V domains shown)
VH: QVQLVQSGPEVKKPGASVKVSCKGSGYTFSWYGISWIRQAPGHGLEWMGWISASSGNTRFAQKVQGRLTMTTDTSTSTAYMELRSLRSDDTAVYYCARTGTRPFDYWGQGTLVTVSS
VL: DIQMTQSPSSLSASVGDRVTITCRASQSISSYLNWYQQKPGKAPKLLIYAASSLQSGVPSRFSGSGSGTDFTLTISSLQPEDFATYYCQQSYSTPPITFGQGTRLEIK
notes: H4H prefix: human IgG4 Fc
B4: H4H18440P2 (antibody, human IgG4, V domains shown)
VH: QVQLVESGGGMVKPGGSLRLSCAASGFTFSDYYMSWIRQAPGKGLEWISHISITGSTIYYADSVKGRFTISRDNAKNSLYLEMNRLRDEDTAVYYCTRDEPDIVLVRYGMDVWGQGTTVTVSS
VL: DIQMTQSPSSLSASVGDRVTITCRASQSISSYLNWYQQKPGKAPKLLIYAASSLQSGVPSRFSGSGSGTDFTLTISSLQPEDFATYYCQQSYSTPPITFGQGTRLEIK
notes: H4H prefix: human IgG4 Fc
B5: H4H18439P2 (antibody, human IgG4, V domains shown)
VH: QLQLQESGPGLVKPSETLSLTCIVSGGDITSSSYYWNWIRQPPGKGLEWIGNIYYSGSTNYNPSLKSRVTISIDTSKSQFSLKLRSVTAADTAVYYCARLLRYFDWSKGYLDYWGQGTLVTVSS
VL: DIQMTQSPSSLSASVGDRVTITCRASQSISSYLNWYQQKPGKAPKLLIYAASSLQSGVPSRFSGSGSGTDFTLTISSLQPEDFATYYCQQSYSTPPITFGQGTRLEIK
notes: H4H prefix: human IgG4 Fc
B6: H4H18466P2 (antibody, human IgG4, V domains shown)
VH: EVQLVESGGGLVQPGGSLRLSCTASGFTFSSYGLHWVRQAPGKGLEYVSSINHNGGSKYYADSVKGRFTISRDNSKNTLFLQMGSLKTEDMAVYYCARDLFLEWLFHGFDIWGQGTMVTVSS
VL: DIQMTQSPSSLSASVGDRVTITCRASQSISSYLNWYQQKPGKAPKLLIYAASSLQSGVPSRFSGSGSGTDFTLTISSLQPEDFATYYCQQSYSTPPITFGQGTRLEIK
notes: H4H prefix: human IgG4 Fc
B7: H4H18437P2 (antibody, human IgG4, V domains shown)
VH: QVQLVESGGGVVQPGRSLRLSCAASGFTFSSYGIHWVRQAPGKGLEWVAVISYDGNNKYYADSVKGRFTISRDNSKNTLYLQMNSLRAEDTAVYYCAKDLFLEWLFHGMGVWGQGTTVTVSS
VL: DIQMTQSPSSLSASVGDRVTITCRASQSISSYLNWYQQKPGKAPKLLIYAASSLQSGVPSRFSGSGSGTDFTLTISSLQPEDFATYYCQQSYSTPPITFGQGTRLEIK
notes: H4H prefix: human IgG4 Fc
B8: H4H17322P2 (antibody, human IgG4, V domains shown)
VH: QLQLQESGPGLVKPSETLSLTCTVSGASISSSRFYGGWIRQPPGKGLEWIGDIYYSGNTYYNPSLQSRVTISVDTSKNQFSLKLSSVTAADTAVYYCARHLMITFGGLIVEGFDIWGQGTMVTVSS
VL: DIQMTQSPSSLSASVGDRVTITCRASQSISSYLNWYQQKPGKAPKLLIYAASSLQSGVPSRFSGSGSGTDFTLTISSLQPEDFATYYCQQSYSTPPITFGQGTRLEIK
notes: H4H prefix: human IgG4 Fc

Biological target: T1, extracellular domain of human LEPR with …
Experiment: FACS, 10 nM Ab, HEK293/hLEPR-GPI cells, no added Leptin
Method: (§1) For the FACS analysis, HEK293 parental cells and HEK293/hLEPR-GPI cells were dissociated and plated onto 96-well v-bottom plates at 5×10⁵ cells/well in PBS containing 2% FBS (FACS buffer). […] Cells were subsequently fixed using BD CytoFix™ (Becton Dickinson, #554655), filtered, and analyzed on a HyperCyt Flow Cytometer (Beckman Coulter). Unstained and secondary antibody alone controls were also tested for all cell lines. The results were analyzed using ForeCyt (IntelliCyt) and FlowJo version 10 softwares to determine the geometric means of fluorescence for viable cells. The geometric mean of fluorescence for each sample was then normalized to the geometric mean of unstained cells to obtain relative binding per condition referred to as “binding ratios”, and these binding ratios were recorded in Table 14 for each antibody tested.

| Binding Ratio (normalized to unstained) [fold] | Binder |
| --- | --- |
| 1170 | B1 |
| 3190 | B2 |
| 2320 | B3 |
| 1640 | B4 |
| 1530 | B5 |
| 824 | B6 |

Biological target: T4, extracellular domain portion of LEPR protein expressed with a C-terminal human Fc tag (human)
T4 construct: Dimeric construct; also called hLEPR.hFc; hLEPR-hFc
Experiment: competition ELISA, 500 nM Ab, 10 nM hLEPR-hFc binding to coated hLeptin
Method: These antibody-protein or protein-protein complexes were then incubated for 1.5 hour at room temperature (RT). […] Samples were developed with a TMB solution (BD Biosciences, #555214; substrate A and B mixed at 1:1 ratio as per manufacturer's instructions) to produce a colorimetric reaction and then neutralized with 1M sulfuric acid before measuring absorbance at 450 nm on a Victor X5 plate reader. Data analysis was performed using a sigmoidal dose-response model within Prism™ software (Graph Pad).

| % blockade [%] | Binder |
| --- | --- |
| 14 | B1 |
| 9 | B7 |
| 13 | B8 |
| 4 | B2 |
| -5 | B3 |
| 3 | B4 |
| -1 | B5 |
| 2 | B6 |

Biological target: T2, human LEPR CRH2-MMH
Experiment: Luminex, myc-captured LEPR protein on beads, Ab 5 µg/mL
Method: (§2) Aliquots of microspheres with immobilized anti-myc monoclonal antibodies, prepared as described above, were added individually to 1 mL of the each of these protein supernatants. The microspheres were gently mixed, incubated for two hours at 25° C., washed twice with 1 mL of DBPS, centrifuged to remove the supernatant and finally resuspended in 1 mL of DPBS buffer. Forty eight μL of anti-myc IgG coupled microspheres from individual reactions with full length human LEPR and with each of the human LEPR domain proteins were withdrawn and mixed together in 3.6 mL of PBS+20 mg/mL BSA+0.05% sodium azide (blocking buffer).
(§3) From this mixed pool, 75 μL of microspheres were plated per well on a 96 well filter plate (Millipore, Cat. No: MSBVN1250) and mixed with 25 μL of individual anti-human LEPR monoclonal antibodies (0.5 or 5 μg/mL), incubated for two hours at 25° C. and then washed twice with 200 μL of DPBS with 0.05% Tween 20 (washing buffer). […] After 30 minutes, the samples were washed twice with 200 μL of washing buffer and resuspended in 150 μL of wash buffer. The Median Fluorescence intensity (MFI) of the microspheres was measured in a Luminex Analyzer.

| Luminex MFI [MFI] | Binder |
| --- | --- |
| 24 | B1 |
| 25 | B7 |
| 19700 | B8 |
| 18 | B2 |
| 24 | B3 |
| 17 | B4 |
| 16 | B5 |
| 17 | B6 |

Biological target: T3, human LEPR CRH1 (D1,D2)-MMH
Experiment: as above
Method: as §2, §3

| Luminex MFI [MFI] | Binder |
| --- | --- |
| 5730 | B1 |
| 82 | B7 |
| 50 | B8 |
| 53 | B2 |
| 59 | B3 |
| 19300 | B4 |
| 21200 | B5 |
| 56 | B6 |

Biological target: T1, extracellular domain of human LEPR with …
Experiment: FACS, 10 nM Ab, HEK293/hLEPR-GPI cells, 1 µM Leptin
Method: as §1

| Binding Ratio (normalized to unstained) [fold] | Binder |
| --- | --- |
| 759 | B1 |
| 3110 | B2 |
| 3590 | B3 |
| 2560 | B4 |
| 2480 | B5 |
| 398 | B6 |
